Experimental data as given in publication PMC12004154, “Overexpression, Purification, and Biochemical Characterization of the vanC2 D-Ala-D-Ser Ligase from Enterococcus casseliflavus SSK and Its Inhibition by an Oxadiazole Derivative” (ACS Omega, 2025).
Read-outs that look alike come from different tables or passages of the source.

Experiments:
[1] = target: T1, vanC2 D-Ala-D-Ser ligase (EcfDdls) (Enterococcus casseliflavus, UniProt Q47720); assay: malachite green inorganic phosphate detection assay with purified enzyme; format: biochemical
T1 construct: C-terminal 6x His-tagged EcfDdls, strain SSK, ~39 kDa

[2] = tested on: Nc1ncnc2c1ncn2[C@@H]1O[C@H](COP(=O)(O)OP(=O)(O)OP(=O)(O)O)[C@@H](O)[C@H]1O; assay: Michaelis-Menten kinetics (Km), inorganic phosphate detection assay; format: biochemical, Enterococcus casseliflavus; settings: MgCl2
N[C@H](CO)C(=O)O = assay: Michaelis-Menten kinetics (Km2), inorganic phosphate detection assay; format: biochemical, Enterococcus casseliflavus; settings: ATP, MgCl2 subsite […] (second substrate binding site)
C[C@@H](N)C(=O)O = assay: Michaelis-Menten kinetics (Km1), inorganic phosphate detection assay; format: biochemical, Enterococcus casseliflavus; settings: ATP, MgCl2 subsite […] (first substrate binding site)

T1 sequence (Q47720 whole entry): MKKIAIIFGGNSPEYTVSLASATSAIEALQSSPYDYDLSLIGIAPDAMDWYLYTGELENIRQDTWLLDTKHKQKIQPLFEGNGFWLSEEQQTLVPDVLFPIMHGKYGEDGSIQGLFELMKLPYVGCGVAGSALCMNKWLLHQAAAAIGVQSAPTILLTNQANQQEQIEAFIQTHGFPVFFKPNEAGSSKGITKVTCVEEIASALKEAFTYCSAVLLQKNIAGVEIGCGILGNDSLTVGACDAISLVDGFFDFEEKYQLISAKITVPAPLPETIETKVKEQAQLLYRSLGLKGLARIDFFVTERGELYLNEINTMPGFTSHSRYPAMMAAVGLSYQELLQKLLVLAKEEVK

Q: Which IC50 ([1]; read-out: IC50) does the source give for `Cc1cc(CN2CCN(Cc3nc(C(C)C)no3)CC2)no1` [CID 45805715, 1-[(5-methyl-1,2-oxazol-3-yl)methyl]-4-{[3-(propan-2-yl)-1,2,4-oxadiazol-5-yl]methyl}piperazine] here?
A: 76.7 ± 1.01 µM

Q: For `N[C@@H]1CON=C1O` [DCS, D-cycloserine], which IC50 [1] is on record?
A: 313 ± 1.6 µM

Q: “vanC2 D-Ala-D-Ser ligase (EcfDdls) (Enterococcus casseliflavus)” was tested. Which Km [2] did it give?
A: 24.31 ± 4.1 µM

Q: What about the Km (N[C@H](CO)C(=O)O) of the same compound?
A: 800 ± 100 µM

Q: What about the Km (C[C@@H](N)C(=O)O) of the same compound?
A: 1120 ± 100 µM
